Experiment [1] deals with T3 – TSHR-LRR11/FSHR (human) (UniProt P16473).
Experiment [2] addresses T1 – FSHR-HinR/TSHR (human) (UniProt P16473).
For experiment [3], the target named is T4 – TSHR-LRR10/FSHR (human) (UniProt P16473).

Turning to “recombinant human thyrotropin (rhTSH) (from UniProt P01215 25-116; P01222 21-132) (ligand)”, the EC50 of intracellular cAMP accumulation in transfected COS-7 cells, rhTSH dose-response in experiment [1] came to 3.8 mU/ml; in experiment [2], 0.4 mU/ml; in experiment [3], 11.6 mU/ml. Also, the intracellular cAMP accumulation in transfected COS-7 cells, rhTSH 0–100 mU/ml; value at 100 mU/ml was determined as 32.9 nM in experiment [1], 57.2 nM in experiment [2] and 36.6 nM in experiment [3].
